Data: the supplement of paper PMC9233669
Fewer inactive variants are shown than the library holds.

What was measured:
[1] = test system: biotinyl-Leu-oxazolone; test: self-aminoacylation, catalytic enhancement (BLO) (fold over background); higher = more active; k-Seq, kA / k0A0; sequences stand for … in GGGAAUGGAUCCACAUCUACGAAUUC…UUCACUGCAGACUUGACGAAGCUG
Summary of the method: (§1)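 Catalytic enhancement equals the median kA over the uncatalyzed rate, the latter read from the low-activity peak of a bimodal Gaussian fit. Values of kA came from fitting each sequence's fraction reacted to a pseudo-first-order model, with 1000 bootstraps. Reacted RNA was captured with streptavidin and quantified by triplicate qPCR and Illumina sequencing after 90 minutes at room temperature with 2–1250 μM biotinyl-aminoacyl-oxazolone and 0.43 μM mutagenized RNA pools bearing a 21-nt variable region.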

[2] = test system: biotinyl-Ile-oxazolone; test: self-aminoacylation, catalytic enhancement (BIO) (fold over background); higher = more active; k-Seq, kA / k0A0; sequences stand for … in GGGAAUGGAUCCACAUCUACGAAUUC…UUCACUGCAGACUUGACGAAGCUG
Summary of the method: as §1

[3] = test system: biotinyl-Met-oxazolone; test: self-aminoacylation, catalytic enhancement (BMO) (fold over background); higher = more active; k-Seq, kA / k0A0; sequences stand for … in GGGAAUGGAUCCACAUCUACGAAUUC…UUCACUGCAGACUUGACGAAGCUG
Summary of the method: as §1

[4] = test system: biotinyl-Val-oxazolone; test: self-aminoacylation, catalytic enhancement (BVO) (fold over background); higher = more active; k-Seq, kA / k0A0; sequences stand for … in GGGAAUGGAUCCACAUCUACGAAUUC…UUCACUGCAGACUUGACGAAGCUG
Summary of the method: as §1

[5] = test system: biotinyl-Phe-oxazolone; test: self-aminoacylation, catalytic enhancement (BFO) (fold over background); higher = more active; k-Seq, kA / k0A0; sequences stand for … in GGGAAUGGAUCCACAUCUACGAAUUC…UUCACUGCAGACUUGACGAAGCUG
Summary of the method: as §1

[6] = test system: biotinyl-Trp-oxazolone; test: self-aminoacylation, catalytic enhancement (BWO) (fold over background); higher = more active; k-Seq, kA / k0A0; sequences stand for … in GGGAAUGGAUCCACAUCUACGAAUUC…UUCACUGCAGACUUGACGAAGCUG
Summary of the method: as §1

Row | Sequence | self-aminoacylation [1] | self-aminoacylation [2] | self-aminoacylation [3] | self-aminoacylation [4] | self-aminoacylation [5] | self-aminoacylation [6]
1 | AUUCACCUAGGUCAUUGUGUG [Fam2.2 aminoacylation ribozyme variant] | 1.03 | 0.871 | 0.898 | 0.835 | 0.805 | 0.463
2 | CUACUUCAACCAAUCGGGCUG [Fam1A.1 aminoacylation ribozyme variant] | 1.68 | 1.71 | 1.24 | 1.22 | 7.63 | 6.74
3 | AUUCACCUAAGUCAUCGGGCG [Fam2.2 aminoacylation ribozyme variant] | 4.95 | 2.63 | 2.83 | 2.53 | 9.59 | 2.51
4 | AAUCACCUACGUCAUCGGGUG [Fam2.2 aminoacylation ribozyme variant] | 6.01 | 4.41 | 6.56 | 3.79 | 53 | 7.27
5 | AUUACCCUAGCCAUCGAGUGA [Fam2.1 aminoacylation ribozyme variant] | 3.46 | 2.02 | 3.86 | 2.13 | 9 | 4.91
6 | AUUACCCGGGUCAUCGAGAGA [Fam2.1 aminoacylation ribozyme variant] | 1.01 | 1.22 | 1.05 | 1.22 | 0.475 | 1.24
7 | AUGACGCUGGUCAUCGAGUGA [Fam2.1 aminoacylation ribozyme variant] | 5.8 | 3.6 | 6.65 | 3.4 | 36.8 | 7.12
8 | AUUCACCUAGUUCAUCCGGUG [Fam2.2 aminoacylation ribozyme variant] | 3.89 | 3.1 | 3.23 | 2.52 | 21.9 | 3.54
9 | AUUCACCGAGGUAAUCGGGUG [Fam2.2 aminoacylation ribozyme variant] | 11.5 | 4.23 | 8.27 | 5.13 | 60.4 | 8.26
10 | AAGUUUGCUAAUAGUCGUUAG [Fam3.1 aminoacylation ribozyme variant] | 0.801 | 0.822 | 0.676 | 1.07 | 2.27 | 1.05
11 | AUUCACCUAGGUCAUCCGGCG [Fam2.2 aminoacylation ribozyme variant] | 3.69 | 3.31 | 3.55 | 4.01 | 15.3 | 4.29
12 | AUUCAUCCAGGUCAUCGGGUG [Fam2.2 aminoacylation ribozyme variant] | 9.76 | 4.96 | 7.87 | 4.75 | 47.8 | 6.96
13 | AUGCCCCUAGGUCAUCGGGUG [Fam2.2 aminoacylation ribozyme variant] | 11.1 | 5.52 | 8.48 | 5.39 | 63.9 | 7.6
14 | AAGUUUGCUGUUAGUCGCAAG [Fam3.1 aminoacylation ribozyme variant] | 0.912 | 0.911 | 0.895 | 0.855 | 0.937 | 1.37
15 | AAGUUUGCUAAAAGUCGCGAG [Fam3.1 aminoacylation ribozyme variant] | 2.1 | 1.7 | 2.21 | 1.68 | 2.4 | 2.34
16 | ACUACCCUGGUCCUCGAGUGA [Fam2.1 aminoacylation ribozyme variant] | 3.84 | 2.6 | 4.59 | 2.25 | 17.6 | 4.3
17 | UUUCACCUAGGUGAUCGGGUG [Fam2.2 aminoacylation ribozyme variant] | 4.15 | 3.55 | 3.5 | 3.67 | 24.3 | 5.69
18 | CUUCACCUAGGUCAUCGGGUU [Fam2.2 aminoacylation ribozyme variant] | 7.09 | 4.09 | 5.02 | 3.77 | 18.1 | 5.02
19 | GCACACUUCAAGAAAUCGGUC [Fam1B.1 aminoacylation ribozyme variant] | 2.21 | 1.97 | 1.87 | 1.59 | 7.74 | 8.15
20 | AUUCACCUGGGUCAUGGGGUG [Fam2.2 aminoacylation ribozyme variant] | 9.15 | 4.05 | 6.65 | 4.9 | 51.6 | 6.16
21 | CCAAACUUCAAGCAAUCGGCC [Fam1B.1 aminoacylation ribozyme variant] | 3.45 | 2.38 | 2.21 | 3.04 | 4.84 | 5.38
22 | AUUCACAUAGCUCAUCGGGUG [Fam2.2 aminoacylation ribozyme variant] | 2.36 | 2 | 1.91 | 2.38 | 12.6 | 2.34
23 | CCACCCCUCAAGCAAUCGGUC [Fam1B.1 aminoacylation ribozyme variant] | 1.28 | 1.18 | 1.05 | 1.27 | 1.64 | 1.14
24 | UAGUUUGCUAAUAGUCACAAG [Fam3.1 aminoacylation ribozyme variant] | 1.76 | 1.41 | 1.51 | 1.31 | 5.1 | 2.38
25 | AUUCUCCUAGCUCAUCGGGUG [Fam2.2 aminoacylation ribozyme variant] | 3.79 | 3.32 | 3.24 | 3.75 | 23.2 | 4.24
26 | AUUACCCUCGUCAUCGGGUGA [Fam2.1 aminoacylation ribozyme variant] | 4.5 | 2.39 | 3.84 | 2.77 | 24.1 | 3.81
